We go through 9 molecules from patent US20210347913A1 (CRISPR THERAPEUTICS, published 2021).

Where a chain is given by its changes, count along the chain named. Names may count otherwise.

T1: recombinant human PTK7.Fc (R and D Systems, catalog #9799-TK) (human, UniProt Q13308 31-704, limits assumed)
T1 construct: Bought reagent; also called soluble recombinant human PTK7.Fc; soluble antigen PTK7; not shown: Fc part of the bought fusion (detected with anti-human Fc)
T1 sequence (looked up): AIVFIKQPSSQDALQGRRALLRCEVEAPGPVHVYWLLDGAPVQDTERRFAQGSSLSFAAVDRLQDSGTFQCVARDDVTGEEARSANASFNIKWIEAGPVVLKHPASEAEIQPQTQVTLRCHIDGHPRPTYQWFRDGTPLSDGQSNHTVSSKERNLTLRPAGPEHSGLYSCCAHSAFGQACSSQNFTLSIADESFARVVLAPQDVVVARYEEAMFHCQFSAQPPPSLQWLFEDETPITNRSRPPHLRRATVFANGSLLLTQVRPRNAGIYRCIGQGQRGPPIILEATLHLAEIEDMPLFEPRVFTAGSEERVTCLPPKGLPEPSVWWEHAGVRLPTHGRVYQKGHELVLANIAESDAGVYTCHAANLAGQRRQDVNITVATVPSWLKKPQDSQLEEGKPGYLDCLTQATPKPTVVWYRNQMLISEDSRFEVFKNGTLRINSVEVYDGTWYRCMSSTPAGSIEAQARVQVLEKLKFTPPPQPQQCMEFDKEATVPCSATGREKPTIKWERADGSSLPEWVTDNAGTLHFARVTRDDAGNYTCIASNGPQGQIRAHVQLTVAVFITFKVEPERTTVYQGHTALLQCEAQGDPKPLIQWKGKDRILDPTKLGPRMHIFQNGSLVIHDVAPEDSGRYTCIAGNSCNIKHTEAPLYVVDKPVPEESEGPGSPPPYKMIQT

T2: PTK7 on PTK7 positive cell line SaOS-2 (osteosarcoma) (UniProt Q13308 31-1070, limits assumed)
T2 sequence (looked up): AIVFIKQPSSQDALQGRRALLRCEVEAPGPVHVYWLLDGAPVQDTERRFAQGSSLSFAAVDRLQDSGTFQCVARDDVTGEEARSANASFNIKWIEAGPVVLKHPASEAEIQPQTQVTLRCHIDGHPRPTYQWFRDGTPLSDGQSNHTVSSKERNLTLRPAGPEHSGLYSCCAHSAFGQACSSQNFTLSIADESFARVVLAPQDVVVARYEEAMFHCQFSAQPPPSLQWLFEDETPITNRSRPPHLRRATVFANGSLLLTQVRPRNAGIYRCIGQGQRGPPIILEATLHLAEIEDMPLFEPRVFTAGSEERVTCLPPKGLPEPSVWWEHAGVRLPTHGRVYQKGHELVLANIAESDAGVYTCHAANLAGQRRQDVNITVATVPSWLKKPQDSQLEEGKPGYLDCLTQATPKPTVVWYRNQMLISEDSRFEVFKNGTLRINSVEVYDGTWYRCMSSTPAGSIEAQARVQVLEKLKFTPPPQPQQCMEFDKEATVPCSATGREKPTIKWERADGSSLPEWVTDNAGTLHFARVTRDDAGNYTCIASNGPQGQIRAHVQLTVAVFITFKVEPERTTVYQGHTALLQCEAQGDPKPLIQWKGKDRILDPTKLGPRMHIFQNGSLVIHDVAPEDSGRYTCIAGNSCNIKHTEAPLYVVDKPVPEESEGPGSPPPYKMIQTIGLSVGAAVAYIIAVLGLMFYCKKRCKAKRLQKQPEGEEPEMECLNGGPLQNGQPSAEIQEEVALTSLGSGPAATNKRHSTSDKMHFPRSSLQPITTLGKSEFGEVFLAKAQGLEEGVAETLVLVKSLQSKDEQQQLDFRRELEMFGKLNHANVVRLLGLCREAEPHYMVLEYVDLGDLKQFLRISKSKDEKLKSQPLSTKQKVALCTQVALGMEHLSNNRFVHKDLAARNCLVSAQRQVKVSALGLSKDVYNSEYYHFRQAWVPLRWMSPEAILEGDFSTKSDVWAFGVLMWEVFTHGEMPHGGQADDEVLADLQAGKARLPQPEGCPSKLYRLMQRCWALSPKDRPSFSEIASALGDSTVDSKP

B1: CTX181.M5 (other)
chain: QGCTYPSWVAYIRFCGSSGGSGGSGGSGGGPLGLAGGSSGQVQLVESGGGVVQPGRSLRLSCAASGFTFSSYGMHWVRQAPGKGLEWVAVIWDDGSNKYYVDSVKGRFTISRDNSKNTLYLQMNSLRAEDTAVYYCARDDYYGSGSFNSYYGTDVWGQGTTVTVSSGGGGSGGGGSGGGGSEIVLTQSPATLSLSPGERATLSCRASQSVSIYLAWYQQKPGQAPRLLIYDASNRATGIPARFSGSGSGTDFTLTISSLEPEDFAVYYCQQRSNWPPFTFGPGTKVDIKSAAAFVPVFLPAKPTTTPAPRPPTPAPTIASQPLSLRPEACRPAAGGAVHTRGLDFACDIYIWAPLAGTCGVLLLSLVITLYCNHRNRSKRSRLLHSDYMNMTPRRPGPTRKHYQPYAPPRDFAAYRSRVKFSRSADAPAYQQGQNQLYNELNLGRREEYDVLDKRRGRDPEMGGKPRRKNPQEGLYNELQKDKMAEAYSEIGMKGERRRGKGHDGLYQGLSTATKDTYDALHMQALPPR
notes: Masked chimeric antigen receptor on the surface of TRAC-/B2M- human T cells; entry without signal peptide
B2: CTX181.M4 (other)
chain: B1 chain with Y5F, S7N, W8T, V9T, A10M, Y11Q, I12R, R13T
notes: as for B1
B3: CTX181.M6 (other)
chain: B1 chain with C3V, T4C, Y5T, P6Y, S7P, W8P, V9A, A10H, Y11R, I12T
notes: as for B1
B4: CTX181.M11 (other)
chain: B1 chain with Y5M, W8H, V9A, A10V, Y11A, I12S, R13F, F14L
notes: as for B1
B5: CTX181.M8 (other)
chain: B1 chain with C3W, T4C, Y5T, P6I, S7P, W8S, V9S, A10M, Y11S, F14L
notes: as for B1
B6: CTX181.M10 (other)
chain: QGCYIGLRMVPCFHMGSSGGSGGSGGSGGGPLGLAGGSSGQVQLVESGGGVVQPGRSLRLSCAASGFTFSSYGMHWVRQAPGKGLEWVAVIWDDGSNKYYVDSVKGRFTISRDNSKNTLYLQMNSLRAEDTAVYYCARDDYYGSGSFNSYYGTDVWGQGTTVTVSSGGGGSGGGGSGGGGSEIVLTQSPATLSLSPGERATLSCRASQSVSIYLAWYQQKPGQAPRLLIYDASNRATGIPARFSGSGSGTDFTLTISSLEPEDFAVYYCQQRSNWPPFTFGPGTKVDIKSAAAFVPVFLPAKPTTTPAPRPPTPAPTIASQPLSLRPEACRPAAGGAVHTRGLDFACDIYIWAPLAGTCGVLLLSLVITLYCNHRNRSKRSRLLHSDYMNMTPRRPGPTRKHYQPYAPPRDFAAYRSRVKFSRSADAPAYQQGQNQLYNELNLGRREEYDVLDKRRGRDPEMGGKPRRKNPQEGLYNELQKDKMAEAYSEIGMKGERRRGKGHDGLYQGLSTATKDTYDALHMQALPPR
notes: as for B1
B7: CTX181.M14 (other)
chain: B1 chain with Y5H, P6V, S7A, W8Q, V9W, Y11I, I12K, R13A
notes: as for B1
B8: CTX181.M13 (other)
chain: B1 chain with S7P, W8R, V9F, A10H, Y11M, I12H, R13W, F14L
notes: as for B1
B9: CTX181.M7 (other)
chain: B1 chain with Y5M, S7Y, W8H, V9I, A10H, Y11S, R13G, F14L
notes: as for B1

The first assay addresses T1, recombinant human PTK7.Fc (R and D …). As to the kind of experiment: flow cytometry, percent of CAR T cells positive for 10 ug/mL PTK7.Fc. The method, then: In addition to detecting surface CAR expression, the ability of the CAR T cells and masked CAR T cells to detect target antigen was also determined. Live CAR T cells were gated by their forward scatter (FSC) and side scatter (SSC) profiles, and with DAPI dye (Invitrogen, catalog #: D3571). The cells were then stained with 10 μg/mL recombinant human PTK7.Fc (R and D Systems, catalog #9799-TK Lot DHMCO219041) as described above in Example 3, and with mouse anti-human.Fc conjugated to APC (Biolegend cat #409305) as secondary antibody for detection (FIG. 3).
In the case of B1, the “% Antigen detection” value came to 18.5%.

With B2, the “% Antigen detection” value came to 32.6%.

Regarding B3, the “% Antigen detection” value was 14.7%.

As to B4, the “% Antigen detection” value turned out to be 30.3%.

With B5, the “% Antigen detection” value was 20.2%.

As to B6, the “% Antigen detection” value stood at 28%.

Take B7: the “% Antigen detection” value stood at 36.2%.

For the molecule B8, the “% Antigen detection” value is 37.5%.

For B9, the “% Antigen detection” value was 28%.

For another assay, the target named is T2, PTK7 on PTK7 positive cell line SaOS-2 …. As to the kind of experiment: cell-based or functional assay.
Consider B1, for which the “% Cell killing at E:T = 1:0.5” value came to 29.6% and the “% Cell killing at E:T = 1:1” value is -0.8%.

Take B2: the “% Cell killing at E:T = 1:0.5” value worked out at 78.4% and the “% Cell killing at E:T = 1:1” value worked out at 54.6%.

With B3, the “% Cell killing at E:T = 1:0.5” value amounted to 42.4% and the “% Cell killing at E:T = 1:1” value stood at 13.9%.

With B4, the “% Cell killing at E:T = 1:0.5” value was found to be 20.1% and the “% Cell killing at E:T = 1:1” value amounted to 12.7%.

For B5, the “% Cell killing at E:T = 1:0.5” value amounted to 15.4% and the “% Cell killing at E:T = 1:1” value was determined as 3.9%.

Consider B6, for which the “% Cell killing at E:T = 1:0.5” value was 32.7% and the “% Cell killing at E:T = 1:1” value worked out at 25.8%.

With B7, the “% Cell killing at E:T = 1:0.5” value was 52.8% and the “% Cell killing at E:T = 1:1” value was determined as 29.5%.

Take B8: the “% Cell killing at E:T = 1:0.5” value came out at 68.6% and the “% Cell killing at E:T = 1:1” value was 41.3%.

In the case of B9, the “% Cell killing at E:T = 1:0.5” value is 37.5% and the “% Cell killing at E:T = 1:1” value came to 10.2%.

For another assay the target is unchanged. In words: cell-based or functional assay. This is another data set of the same source.
Turning to B1, the “IFNγ (pg/mL) at E:T = 1:0.5” value was determined as 523 pg/mL and the “IFNγ (pg/mL) at E:T = 1:1” value amounted to 459 pg/mL.

Regarding B2, the “IFNγ (pg/mL) at E:T = 1:0.5” value came to 9550 pg/mL and the “IFNγ (pg/mL) at E:T = 1:1” value was 13200 pg/mL.

Consider B3, for which the “IFNγ (pg/mL) at E:T = 1:0.5” value is 735 pg/mL and the “IFNγ (pg/mL) at E:T = 1:1” value came to 715 pg/mL.

B4: the “IFNγ (pg/mL) at E:T = 1:0.5” value worked out at 884 pg/mL and the “IFNγ (pg/mL) at E:T = 1:1” value turned out to be 887 pg/mL.

As to B5, the “IFNγ (pg/mL) at E:T = 1:0.5” value came to 400 pg/mL and the “IFNγ (pg/mL) at E:T = 1:1” value was 443 pg/mL.

With B6, the “IFNγ (pg/mL) at E:T = 1:0.5” value is 2110 pg/mL and the “IFNγ (pg/mL) at E:T = 1:1” value was 1880 pg/mL.

As for B7, the “IFNγ (pg/mL) at E:T = 1:0.5” value amounted to 1760 pg/mL and the “IFNγ (pg/mL) at E:T = 1:1” value amounted to 1930 pg/mL.

As for B8, the “IFNγ (pg/mL) at E:T = 1:0.5” value stood at 4860 pg/mL and the “IFNγ (pg/mL) at E:T = 1:1” value came to 6170 pg/mL.

As to B9, the “IFNγ (pg/mL) at E:T = 1:0.5” value stood at 885 pg/mL and the “IFNγ (pg/mL) at E:T = 1:1” value is 830 pg/mL.
